# According to PMC4915627, “Staphylococcal Bap Proteins Build Amyloid Scaffold Biofilm Matrices in Response to Environmental Signals” (PLoS Pathogens, 2016):
# B1: purified recombinant Bap_B protein (region B of Bap of S. aureus V329, amino acids 361-819, N-terminal hexahistidine tag) (domain or fragment)
# chain: QKSLGYTDNYTFASMLFDPGKLDSDDALNSNIIPFDLHSYMSGANSGNRYKIDLKLDPIIAEHVTKISANPSGSNKPVEFVRNKDENGNLTDTWEVNFIRANDGLFGGAEILSQYTAKNGKIELDDTVGNIISNAGNLSNNKLNHQVFVRDSRENKIVRTSESSGYFLTKADDDLVNLENNVSTENNNAFKASSGSATYNENVGEFGGILIDQQIMKNGIFSYSKTKANQWAYNYQIDKDLLPYIEGVELHQYDYKGLNGFDKNYDAKNKVADLTIDEVGNGTITSDNLNKLIEFNNALPETVGVRVVLKLNKSVNNILTKDAKYDSEGNLIRETTKQKEDFTFAGYLTDSKGALINNTLGTSTLALQDYDKDGLLDRYERQLSLSDAENEDTDGDGKNDGDEVVNYKTSPLVGKPQAADITTEDTVVSGSVPLKEGAATQTAKVINAEGTTVGTATVN
# notes: Biofilm associated protein Bap of Staphylococcus aureus V329, region B, amino acids 361-819 (1377 bp fragment cloned in pET46-Ek/LIC); The results give domain B as residues 362-819 (chimeras); the methods give 361-819 for the recombinant protein; also called B domain of Bap
# B2: Bap_B amyloid peptide II (aa 579 to 584) (peptide)
# peptide: GIFSYS
# notes: Bap of Staphylococcus aureus, stretch of region B, aa 579 to 584; also called GIFSYS; source: synthetic peptide, bought: CASLO ApS
# B3: Bap_B amyloid peptide I (aa 487 to 496) (peptide)
# peptide: TVGNIISNAG
# notes: Bap of Staphylococcus aureus, stretch of region B, aa 487 to 496; source: synthetic peptide, bought: CASLO ApS
# How the values were obtained:
# [1] = biological target: the molecule itself; test: thioflavin-T fluorescence; fresh rBap_B at 0.01-0.036 mg/ml, 25 μM ThT, 25°C, pH 4.5, 5 min
# [2] = biological target: the molecule itself; test: gel formation + electron microscopy + thioflavin-T fluorescence; synthetic peptide at 10 μM, pH 4.5, citrate buffer, room temperature (25°C), four weeks
Protein,binding result [1],binding result [2]
B1,binds,
B2,,binds
B3,,binds
